Measured values: the supplement of paper PMC9170038

Tested on: MS2 coat protein
Assay: apparent KD of MS2 coat protein; designed switch direction (-1 OFF switch, 1 ON switch): 1; higher = weaker reporter binding
Summary of the method: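 Designed RNA switches with common flanks were made on Illumina chips by stalled E. coli RNA polymerase. Titration with SNAP-549-labelled MS2 coat protein doubled from 0.7 or 1.5 nM up to 3 µM. Apparent KD is each design's median over clusters after curve-fitting normalised fluorescence.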

[1] = Eterna round: R95, input ligand: FMN 200 uM
[2] = Eterna round: R95, input ligand: microRNA oligo, concentration not stated
[3] = Eterna round: R95, input ligand: none
[4] = input ligand: microRNA oligo, concentration not stated

Sequence	apparent KD of MS2 coat protein [1]	apparent KD of MS2 coat protein [2]	apparent KD of MS2 coat protein [3]	apparent KD of MS2 coat protein (input ligand: FMN 200 uM)	apparent KD of MS2 coat protein [4]	apparent KD of MS2 coat protein (input ligand: none)
UUCUAACAUGAGGAUCACCCAUGUCAUAUGACAUGAGGAUAUGUACAGACUUCGGUCUGUACAGAAGGCAUGUUAG [SS1 - 1011 Omei Mod 7] (puzzle: Same State 1)	31.6 nM	10.7 nM	20.5 nM	–	–	–
AUUAUUUAUGCAGGAUAUGAUUAACAUGAGGAUCACCCAUGUGGUGUUGUGAGUAAGGAGAGUGAUCAGAAGGGCAUUUAUUUU [JMF's solution 47] (Eterna round: R96, puzzle: Same State NG 2)	–	–	–	926 nM	559 nM	669 nM
GCGAGCGUACUUGCUACAUGAGGAUCACCCAUGUUUCAUGGACAGGAUAUGGUACCGUUUCGGUACCAGAAGGGUUCACAUGUA [JL SSNG3 3.80] (Eterna round: R96, puzzle: Same State NG 3)	–	–	–	155 nM	98.8 nM	315 nM
UAAACUUCUUUUAGUGUGUUGCCAGUUUUACAUGAGGAUCACCCAUGUUAAGUAUUGUGGUAUUUUGUUCGUCUUAA [JR_SHM208A_Sub074] (puzzle: Sensor for hsa-mir-208a)	15.2 nM	14.2 nM	15.3 nM	–	–	–
AAGGUCAAGAUAGGAUAUGUUUCAUGAUAGAUAACAGAAGGAUCUAGAACAUGAGGAUCACCCAUGUGGCACAUAGAGUGGUGA [Default title] (Eterna round: R96, puzzle: Same State NG 1)	–	–	–	–	284 nM	–
GCUAGAAAUAAAGCCAACAUGAGGAUCACCCAUGUAUGUUGGUAGGAUAUCGUUUGCAAAGCAAACGAGAAGGGCUAAACUAGC [Mat - Same State NG 3 - JL Mod - D17] (Eterna round: R96, puzzle: Same State NG 3)	–	–	–	61.6 nM	68.8 nM	61 nM
UUUAGGUACGGGCAGGAUAUGUAUUAAAAUACAUGAGGAUCACCCAUGUGCGGGUAUAACACCCGACAGAAGGGCCAAUCGUACC [Laonerce - 10] (puzzle: Same State 2)	25.1 nM	136 nM	251 nM	–	–	–
AGAUAACAUGAGGAUCACCCAUGUCAACUAAGUCGAGGAUAUGGGCAUAUUAUAUUAGAACCAGAAGGCGAAUAGA [Mat - Same State 1 - Mod of UCT - D45] (puzzle: Same State 1)	12.6 nM	4.03 nM	27.9 nM	–	–	–
UUCACCUUUUAUAACAUGAGGAUCACCCAUGUAUAUUGUACGUAGGAUAUCGAUGUUAGUUUUUUCGAGAAGGACGAUGUAAGU [JR_SSND3_Sub049] (Eterna round: R96, puzzle: Same State NG 3)	–	–	–	29.6 nM	40.7 nM	53.9 nM
UUAAUGAUGAUAGGAUAUACAUGAGGAAUUCUCGUAGAAGGAUCAUGACAUGAGGAUCACCCAUGUAUCGCUCAGAAGAGCGUA [Mat - Same State NG 1 - JL mod - D32] (Eterna round: R96, puzzle: Same State NG 1)	–	–	–	1340 nM	368 nM	528 nM
AUAAAUAACACAGGAUAUCCACACGAAUAGUGCGGAGAAGGGUGAACGUCGGCUCUCGCCAACAUGAGGAUCACCCAUGUAAAA [Tediissobe] (Eterna round: R96, puzzle: Same State NG 1)	–	–	–	64.4 nM	12.7 nM	31.5 nM
UCUUGGUUUUUGCUCGUUUUUUGUGUUGAACAUGAGGAUCACCCAUGUAUUGUACGGUCCAGUUUAAUAAUGGUCCG [JMF 30] (puzzle: Sensor for hsa-mir-208a)	23.4 nM	14 nM	25 nM	–	–	–
